Data from publication PMC10190621 (Advanced Science, 2023).

Target: T1, His-tagged KEAP1 (C-terminal amino acids 312-624, containing the Kelch domain) (human, UniProt Q14145 312-624)
T1 construct: plasmid by Tsingke Biotechnology; also called His-KEAP1; Kelch domain of KEAP1; source: E. coli BL21 (DE3), purified (Ni-NTA column, gel filtration)
Test: pull-down; His pulldown, competition: 10 µg His-KEAP1 on His immunomagnetic beads, mixed with NRF2 and 5 or 10 µg DDRGK1 protein at 4 °C overnight, washed three times, immunoblot
Settings: both partners purified

T1 sequence (Q14145 312-624): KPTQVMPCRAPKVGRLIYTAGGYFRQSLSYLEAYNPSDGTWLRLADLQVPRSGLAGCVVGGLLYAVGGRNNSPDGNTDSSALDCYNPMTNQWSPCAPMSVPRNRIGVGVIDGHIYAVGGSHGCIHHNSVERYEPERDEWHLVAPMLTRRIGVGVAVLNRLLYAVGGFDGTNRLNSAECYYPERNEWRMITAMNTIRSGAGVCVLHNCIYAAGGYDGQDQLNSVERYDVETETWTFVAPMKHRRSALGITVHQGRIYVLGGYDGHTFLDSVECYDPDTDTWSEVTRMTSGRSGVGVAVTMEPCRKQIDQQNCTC

binding result: binds
B1: GST-tagged NRF2 (N-terminal amino acids 1-84, containing domains interacting with KEAP1) (domain or fragment, human, UniProt Q16236 1-84, looked up)
chain: MMDLELPPPGLPSQQDMDLIDILWRQDIDLGVSREVFDFSQRRKEYELEKQKKLEKERQEQLQKEQEKAFFAQLQLDEETGEFL
notes: N-terminal domain (residues 1-84) of human NRF2; plasmid by Tsingke Biotechnology; also called GST-NRF2; NRF2 protein; source: E. coli BL21 (DE3), purified (GSH column, gel filtration)
